Measured values published in paper doi:10.1101/2023.11.22.568357 (bioRxiv, 2023).

Tests used:
[1] = target: His-TEV LRRC4B (limits not told for Fig. 1G) (human); assay: ELISA
[2] = target: 6xHis-LRRC4B(453–576) (human) (UniProt Q9NT99); assay: SPR
[3] = target: LRRC4B(484-576)-hFc (human) (UniProt Q9NT99); assay: ELISA
[4] = target: His-TEV LRRC4B(36-576) (human) (UniProt Q9NT99); assay: ELISA
[5] = target: LRRC4B(453-576)-hFc (human) (UniProt Q9NT99); assay: ELISA
[6] = target: FAM19A5 (wild type, recombinant) (human); assay: ELISA
[7] = target: T1, PTPRF ectodomain (30-1263)-hFc (human, UniProt P10586-1 30-1263); assay: ELISA
T1 sequence (looked up): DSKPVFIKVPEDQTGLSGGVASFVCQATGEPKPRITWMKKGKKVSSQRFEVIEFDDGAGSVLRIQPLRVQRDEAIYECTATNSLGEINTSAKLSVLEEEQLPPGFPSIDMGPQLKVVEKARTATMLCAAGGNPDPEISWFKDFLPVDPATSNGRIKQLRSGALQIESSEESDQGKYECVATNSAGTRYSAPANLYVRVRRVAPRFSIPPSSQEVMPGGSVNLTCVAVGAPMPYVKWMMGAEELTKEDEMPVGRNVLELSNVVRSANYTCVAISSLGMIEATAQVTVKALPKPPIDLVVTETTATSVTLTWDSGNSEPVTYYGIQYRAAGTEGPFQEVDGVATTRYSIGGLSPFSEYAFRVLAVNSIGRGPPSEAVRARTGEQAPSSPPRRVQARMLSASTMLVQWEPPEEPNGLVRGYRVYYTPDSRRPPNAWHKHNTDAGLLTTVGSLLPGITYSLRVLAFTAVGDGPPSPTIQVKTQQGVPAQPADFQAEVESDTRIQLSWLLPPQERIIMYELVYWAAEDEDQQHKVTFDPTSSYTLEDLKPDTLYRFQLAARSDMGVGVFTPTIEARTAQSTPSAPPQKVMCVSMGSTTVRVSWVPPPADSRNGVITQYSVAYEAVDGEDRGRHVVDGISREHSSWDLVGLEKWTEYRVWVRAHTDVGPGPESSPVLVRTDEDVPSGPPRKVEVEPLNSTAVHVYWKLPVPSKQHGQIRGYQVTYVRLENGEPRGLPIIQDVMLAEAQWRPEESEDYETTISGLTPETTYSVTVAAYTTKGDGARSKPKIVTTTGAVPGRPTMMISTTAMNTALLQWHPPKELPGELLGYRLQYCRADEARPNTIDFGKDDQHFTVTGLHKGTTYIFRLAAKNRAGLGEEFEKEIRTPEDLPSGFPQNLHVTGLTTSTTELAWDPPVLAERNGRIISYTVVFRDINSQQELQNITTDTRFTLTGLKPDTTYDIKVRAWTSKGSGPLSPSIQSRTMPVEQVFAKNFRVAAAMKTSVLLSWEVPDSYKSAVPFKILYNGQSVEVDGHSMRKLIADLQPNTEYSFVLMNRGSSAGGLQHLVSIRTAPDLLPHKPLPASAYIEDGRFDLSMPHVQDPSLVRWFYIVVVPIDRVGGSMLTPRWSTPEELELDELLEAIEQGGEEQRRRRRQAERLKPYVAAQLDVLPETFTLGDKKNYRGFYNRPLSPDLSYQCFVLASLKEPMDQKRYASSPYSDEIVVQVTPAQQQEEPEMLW

## MT FAM19A5(R58A, R59A) (ligand)
[1]
  EC50: 0.595 nM

## FAM19A5 (wild type, recombinant) (ligand)
[2]
  Kd: 0.0321 nM
  koff: 0.000157 s⁻¹
  kon: 4.89e+06 M⁻¹ s⁻¹
[1]
  EC50: 0.41 nM
[3]
  EC50: 0.112 nM
[4]
  IC50: 281 nM
[5]
  EC50: 0.0685 nM

B1: LRRC4B(453-576)-hFc (Fc fusion)
chain: VSAVDPVAAGGTGSGGGGPGGSGGVGGGSGGYTYFTTVTVETLETQPGEEALQPRGTEKEPPGPTTDGVWGGGRPGDAAGPASSSTTAPAPRSSRPTEKAFTVPITDVTENALKDLDDVMKTTK
[6]
  IC50: 8.1 nM

B2: His-TEV LRRC4B(36-576) (domain or fragment, human, UniProt Q9NT99 36-576, looked up)
chain: AGGGGVAVTSAAGGGSPPATSCPVACSCSNQASRVICTRRDLAEVPASIPVNTRYLNLQENGIQVIRTDTFKHLRHLEILQLSKNLVRKIEVGAFNGLPSLNTLELFDNRLTTVPTQAFEYLSKLRELWLRNNPIESIPSYAFNRVPSLRRLDLGELKRLEYISEAAFEGLVNLRYLNLGMCNLKDIPNLTALVRLEELELSGNRLDLIRPGSFQGLTSLRKLWLMHAQVATIERNAFDDLKSLEELNLSHNNLMSLPHDLFTPLHRLERVHLNHNPWHCNCDVLWLSWWLKETVPSNTTCCARCHAPAGLKGRYIGELDQSHFTCYAPVIVEPPTDLNVTEGMAAELKCRTGTSMTSVNWLTPNGTLMTHGSYRVRISVLHDGTLNFTNVTVQDTGQYTCMVTNSAGNTTASATLNVSAVDPVAAGGTGSGGGGPGGSGGVGGGSGGYTYFTTVTVETLETQPGEEALQPRGTEKEPPGPTTDGVWGGGRPGDAAGPASSSTTAPAPRSSRPTEKAFTVPITDVTENALKDLDDVMKTTK
[7]
  binding result: binds
